Measurements published in patent publication US20090291083A1, “BARB4 TARGET, ANTIBODY DESIGNATED BARB4, BARB4 RELATED ANTIBODIES, AND METHODS OF MAKING AND USING SAME” (PATRYS LIMITED, priority 2008, published 2009).

How the values were obtained:
[1] = tested on: Malignant Tissues: Stomach; experiment: Immunohistochemistry (IHC) with biotinylated BARB4 on malignant tissue; assay type: binding, human; details: positive/negative
Description: (§1) Immunohistochemistry with human IgG on human tissue naturally results in high background staining. Accordingly, BARB4 was labeled with biotin to reduce background.
(§2) BARB4 antibody and an unrelated commercial IgG control (Chrompure IgG, Dianova) where labelled with “EZ-Link Maleimide-PEO Solid Phase Biotinylation Kit” from Pierce (Cat-# 21930) and Immunohistochemistry was initiated on different tumor tissue. Parrafin embedded tissue was first deparaffinized by treatment with Xylene 1 for 5 min, Xylene 2 for 5 min, followed by 100% Ethanol 1 for 5 min, 100% Ethanol 2 for 5 min, 70 ml Methanol+500 μl H2O2 for 7 min, 90% Ethanol 1 for 3 min, 90% Ethanol 2 for 3 min, 80% Ethanol 1 for 3 min, 80% Ethanol 2 for 3 min, 70% Ethanol 1 for 3 min, 70% Ethanol 2 for 3 min, and then washed three times with distilled H2O. (1 and 2 mean that the tissues were treated 2 times with the same alcohol, one after the another, in two different tanks.) Tissue was then heated in Citric acid, pH 5,5 in a water-bath at 99.9° C. for 20 min, placed in Tris/NaCl (Tris, 0.6 g/l and NaCl 8.1 g/l, pH 7.4) for 5 min, block with 0.5% BSA in PBS for 60 min, and then washed three times with Tris/NaCl (Tris, 0.6 g/l and NaCl 8.1 g/l, pH 7.4). Primary antibody (150 μl per microscope slide) was added, or a negative control biotinylated isotype matched control human antibody (Chrompure IgG, Dianova, Germany) or a positive controlanti-cytokeratin antibody, and incubated for 30 min in a humidified chamber at 37° C. Tissue was washed three times with Tris/NaCl (Tris, 0.6 g/l and NaCl 8.1 g/l, pH 7.4). Secondary antibody: (150 […]) was subsequently added and incubated for 30 min in a humidified chamber at room temperature (for biotinylated antibodies: NeurtrAvidin 1:100 in PBS), washed three times with Tris/NaCl (Tris, 0.6 g/l and NaCl 8.1 g/l, pH7.4), placed in PBS for 10 min. Tiusse was subsequently incubated with diaminobenzidine (0.05%)-hydrogen peroxide (0.02%) (150 μl per microscope slide) (Sigma, Taufkirchen, München, Germany) for 10 min, washed three times with H2O, washed once with distilled H2O, incubated with hematoxylin/eosin for 5 min, and placed under running tap water 10-15 min. Tissue was then washed again with distilled H2O, and the slides covered with Aquatex (Merck Bioscience).

[2] = tested on: Malignant Tissues: Melanoma; experiment: as above; assay type: binding, human; details: Metastases of malignant melanoma, positive/negative
Description: as §1, §2

[3] = tested on: Malignant Tissues: Prostrate; experiment: as above; assay type: binding, human; details: Adeno, positive/negative
Description: as §1, §2

Malignant Tissues: Colon = experiment: as above; assay type: binding, human; details: positive/negative
Description: as §1, §2

[4] = tested on: Malignant Tissues: Esophagus; experiment: as above; assay type: binding, human; details: positive/negative
Description: as §1, §2

Malignant Tissues: Lung = experiment: as above; assay type: binding, human; details: positive/negative
Description: as §1, §2

[5] = tested on: pancreas cancer cells (BXPC-3); experiment: FACS analysis of tumor cell binding; set-up: species or system human; details: 20 min on ice
Description: (§3) To analyze tumor cell binding, pancreas cancer cells (BXPC-3), stomach cancer cells (23132/87), lung carcinoma cells (A549) and malignant melanoma cells (HTB-69 and CRL-1424) were grown to subconfluency in complete medium, detached with Trypsin/EDTA and incubated on ice for 1 h for recreation. Tumor cells were subsequently incubated on ice with BARB4 antibody (diluted in PBS containing 0.01% sodium azide), or human isotype-matched control antibody (Chrompure human IgG, Dianova, Hamburg, Germany) for 20 min on ice. Following incubation, cells were incubated with a FITC-labeled rabbit anti-human IgG antibody (1:50, Dako, Germany) for 20 min on ice, and cells were analyzed by flow cytometry (FACScan; Becton Dickinson, USA).

[6] = tested on: lung carcinoma cells (A549); experiment: FACS analysis of tumor cell binding; set-up: species or system human; details: 20 min on ice
Description: as §3

[7] = tested on: stomach cancer cells (23132/87); experiment: FACS analysis of tumor cell binding; details: 20 min on ice
Description: as §3

[8] = tested on: malignant melanoma cells (CRL-1424); experiment: FACS analysis of tumor cell binding; details: 20 min on ice
Description: as §3

[9] = tested on: malignant melanoma cells (HTB-69); experiment: FACS analysis of tumor cell binding; details: 20 min on ice
Description: as §3

[10] = tested on: human pancreas carcinoma cell-line BXPC-3; experiment: Immunofluorescence, endocytosis of conjugated BARB4; assay type: cell-based; details: 40 μg/ml conjugated antibody, 37° C., 30 minutes after binding
Description: Endocytosis was determined for BARB4 on human pancreas carcinoma cell-line BXPC-3. BARB4 antibody (purified) was conjugated with Fluorescent orange 548 reactive (Fluka, Buchs, Switzerland). Conjugated BARB4 antibody at a final concentration of 40 μg/ml was directly given to 1×10^6 cells and incubated for indicated times at 37° C. Cells were harvested, rinsed and resuspended in phosphate buffer saline pH 7,4 (PBS). 100 μl of each cell suspension was fixed on slides. Finally the slides were mounted with Fluorescent Mounting Medium (DakoCytomation, Carpinteria, USA) and analyzed by confocal microscopy. The data is illustrated in FIG. 4.

B1: BARB4: human IgG antibody produced by hybridoma DSMZ Deposit No. DSM ACC2876; heavy chain SEQ ID NOs:1, 3, 5, 7, light chain SEQ ID NO:9 (antibody, V domains shown)
VH: QVQLVESGGGVVQPGRSLRLSCAASGFRFTTHGMHWVRQAPGKGLEWVAVISYNGRNKYYADYVNGRFTISRDDSRDTVFLQMNSLRPEDTAMYYCAKVRGDGYGDYGYFDYWGHGTLVSVSS
VL: QSALTQPRSVSGSPGQSVTISCTGTYNYVSWYQQHPGKAPKLMIFDVSRRSSGVPDRFSGSKSGNTASLTISGLQAEDEADYYCCSYGGTYLYVFGTGTTVTVLGQ
- Barb 4 +/− ([1]; Adeno (Cardio, intestinal)): 1/0
- Barb 4 +/− ([1]; Adeno (intestinal)): 2/0
- Barb 4 +/− [2]: 5/0
- Barb 4 +/− [3]: 1/0
- Barb 4 +/− (Malignant Tissues: Colon; Adeno): 1/0
- Barb 4 +/− (Malignant Tissues: Colon; Liver Metastasis): 2/0
- Barb 4 +/− ([4]; Adeno (Barrett Carcinoma)): 1/0
- Barb 4 +/− ([4]; Squamous cell): 1/0
- Barb 4 +/− (Malignant Tissues: Lung; Carcinoid (neuron-endocrine)): 1/0
- Barb 4 +/− (Malignant Tissues: Lung; Lymph Node Metastasis): 1/0
- Barb 4 +/− (Malignant Tissues: Lung; Squamous cell): 2/0
- tumor cell binding (FACS) [5]: binds
- tumor cell binding (FACS) [6]: binds
- tumor cell binding (FACS) [7]: binds
- tumor cell binding (FACS) [8]: binds
- tumor cell binding (FACS) [9]: binds
- endocytosis of antibody by cells (immunofluorescence) [10]: endocytosis
